We go through six molecules from paper doi:10.1101/2024.02.23.581681 (bioRxiv, 2024).

Assay [1] deals with RCD1-SRO-TAF4 (RST) domain from Radical-Induced Cell Death1, RCD1-RST_(499-572) (UniProt Q8RY59). As to the kind of experiment: ITC.
Assay [2] addresses T1, RCD1-SRO-TAF4 (RST) domain from Radical-Induced Cell Death1, RCD1-RST_(499-572) (UniProt Q8RY59 499-572).
T1 sequence (looked up): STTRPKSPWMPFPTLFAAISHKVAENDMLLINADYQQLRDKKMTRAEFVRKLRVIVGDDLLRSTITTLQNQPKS
As to the kind of experiment: ITC. Background: Isothermal titration calorimetry measures the heat released or taken up as one component is titrated into another.

Regarding “D-ANAC013_(254-274) peptide, D-enantiomer (from UniProt F4IED2 254-274)”, the fold difference in Kd against L-ANAC013 in assay [1] stood at 500 fold. In turn, “D-ANAC046_(319-338) peptide, D-enantiomer (from UniProt Q9SQQ6 319-338)” showed a fold difference in Kd against L-ANAC046 in assay [1] of 15 fold.

Consider “D-DREB2A_(255-272) peptide, D-enantiomer (from UniProt O82132 255-272)”, for which the fold difference in Kd against L-DREB2A in assay [1] amounted to 72 fold. SKSACDGLDDLIFWEDLYTS (peptide, UniProt Q9SQQ6 319-338, looked up) [L-ANAC046_(319-338) peptide]: the binding result in assay [2] was “binds”. With SSDMFDVDELLRDLNGDD (peptide, UniProt O82132 255-272, looked up) [L-DREB2A_(255-272) peptide], the binding result in assay [2] is “binds”.

For NLEEDMYLEINDLMEPEPEPT (peptide, UniProt F4IED2 254-274, looked up) [L-ANAC013_(254-274) peptide], the binding result in assay [2] is listed as “binds”.
